Test results as given in article PMC2815668, “Pseudo-merohedral twinning and noncrystallographic symmetry in orthorhombic crystals of SIVmac239 Nef core domain bound to different-length TCRζ fragments” (Acta Crystallographica Section D: Biological Crystallography, 2010).

Target: T1, SIVmac239 Nef core domain, GS-Nef (Asp95–Ser235) (simian immunodeficiency virus, isolate …, UniProt P31818 95-235)
T1 construct: source: E. coli BL21 (DE3), purified (Ni-NTA under 8 M urea, dialysis, thrombin cleavage, anion exchange, SEC)
T1 sequence: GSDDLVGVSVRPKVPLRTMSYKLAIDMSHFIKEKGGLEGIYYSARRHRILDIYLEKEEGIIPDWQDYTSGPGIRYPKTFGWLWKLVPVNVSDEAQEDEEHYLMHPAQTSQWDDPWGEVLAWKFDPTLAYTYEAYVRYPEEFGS
Test: not stated; unpublished results; stoichiometry of the complex
Settings: both partners purified

B1: TCRζDP1 (Leu51–Asp93), N-terminal acid-cleavage fragment of the TCRζ cytoplasmic domain (domain or fragment)
chain: LRVKFSRSADAPAYQQGQNQLYNELNLGRREEYDVLDKRRGRD
notes: also called longer TCRζ polypeptide; source: acid cleavage of purified TCRζcyt (30% acetonitrile, 0.5% TFA, 48 h, 323 K), isolated by reverse-phase chromatography
- stoichiometry N: 1
